Results published in article PMC11079029, “Intramolecular autoinhibition regulates the selectivity of PRPF40A tandem WW domains for proline-rich motifs” (Nature Communications, 2024).

Columns and labels:
Test in all cases: ITC; GB1-peptide or GB1-SF1 construct in the cell, PRPF40A WW12 in the syringe (as shown in Supplementary Figures 7 and 16A); 25 °C, 20 mM sodium phosphate pH 6.5, 100 mM NaCl; one-site binding model; at least duplicates; affinities apparent
Conditions in all cases: both partners purified
[1] = biological target: T1, GB1-polyproline peptide P16
T1 chain: PPPPPPPPPPPPPPPP

[2] = biological target: T2, GB1-polyproline peptide P29
T2 chain: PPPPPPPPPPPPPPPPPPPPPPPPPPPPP

[3] = biological target: T3, GB1-polyproline peptide P19
T3 chain: PPPPPPPPPPPPPPPPPPP

[4] = biological target: T4, GB1-SF1 16-mer peptide 565-580
T4 chain: TMVPLPPGVQPPLPPG

[5] = biological target: T5, GB1-SF1 Pro A (residues 410-468) (UniProt Q15637 410-468)
T5 construct: splicing factor 1 (SF1), residues 410-468 of the proline-rich C-terminal region; His6-GB1-TEV site cassette of the pET24 vector, not cleaved; source: E. coli BL21(DE3), purified (Ni-NTA, SEC); not shown: GB1, N-terminal, kept
T5 sequence (looked up): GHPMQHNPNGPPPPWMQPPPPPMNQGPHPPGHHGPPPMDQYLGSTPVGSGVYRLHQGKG

[6] = biological target: T6, GB1-SF1 Pro D (residues 594-639) (UniProt Q15637 594-639)
T6 construct: splicing factor 1 (SF1), residues 594-639 of the proline-rich C-terminal region; His6-GB1-TEV site cassette of the pET24 vector, not cleaved; source: E. coli BL21(DE3), purified (Ni-NTA, SEC); not shown: GB1, N-terminal, kept
T6 chain (looked up): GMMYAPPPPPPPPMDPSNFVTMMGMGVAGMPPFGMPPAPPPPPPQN

[7] = biological target: T7, GB1-polyproline peptide P22
T7 chain: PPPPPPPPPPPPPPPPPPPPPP

[8] = biological target: T8, GB1-SF1 Pro C (residues 539-594) (UniProt Q15637 539-594)
T8 construct: splicing factor 1 (SF1), residues 539-594 of the proline-rich C-terminal region (holds the WWbs motif 575-590); His6-GB1-TEV site cassette of the pET24 vector, not cleaved; source: E. coli BL21(DE3), purified (Ni-NTA, SEC); not shown: GB1, N-terminal, kept
T8 sequence (looked up): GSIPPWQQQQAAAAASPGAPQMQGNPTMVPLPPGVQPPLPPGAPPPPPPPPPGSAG

[9] = biological target: T9, GB1-SF1 Pro B (residues 468-539) (UniProt Q15637 468-539)
T9 construct: splicing factor 1 (SF1), residues 468-539 of the proline-rich C-terminal region; His6-GB1-TEV site cassette of the pET24 vector, not cleaved; source: E. coli BL21(DE3), purified (Ni-NTA, SEC); not shown: GB1, N-terminal, kept
T9 sequence (looked up): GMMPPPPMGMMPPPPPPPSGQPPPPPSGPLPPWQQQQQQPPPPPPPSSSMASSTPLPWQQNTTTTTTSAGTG

[10] = biological target: T10, GB1-polyproline peptide P13
T10 chain: PPPPPPPPPPPPP

[11] = biological target: T11, GB1-polyproline peptide P25
T11 chain: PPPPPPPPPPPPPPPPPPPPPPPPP

[12] = biological target: T12, GB1-polyproline peptide P10
T12 chain: PPPPPPPPPP

B1: PRPF40A WW12 (tandem WW domains, residues 141-236) (domain or fragment, human, UniProt O75400 141-236, looked up)
chain: GAKSMWTEHKSPDGRTYYYNTETKQSTWEKPDDLKTPAEQLLSKCPWKEYKSDSGKPYYYNSQTKESRWAKPKELEDLEGYQNTIVAGSLITKSNL
notes: A few vector residues probably remain at the N-terminus after TEV cleavage (pETM11, NcoI site); 15N-labelled in the NMR experiments; also called PRPF40A WW tandem; WW12 wt; source: E. coli BL21(DE3), purified (Ni-NTA, TEV digestion, reverse Ni-NTA, SEC); not shown: His6, N-terminal, cleaved
B1 was tested. Which “stoichiometry N” value [1] did it give?
The value was 0.88 ± 0.08 sites.

What about the “stoichiometry N” value [2] of the same binder?
Its value is 2.47 ± 0.09 sites.

And the “stoichiometry N” value [3]?
Its value is 1.1 ± 0.04 sites.

And the “stoichiometry N” value [4]?
Its value is 1.06 ± 0.11 sites.

And the “stoichiometry N” value [5]?
Its value is 0.99 ± 0.17 sites.

And the “stoichiometry N” value [6]?
Its value is 0.87 ± 0.02 sites.

What about the “stoichiometry N” value [7] of the same binder?
Its value is 1.39 ± 0.03 sites.

What about the “stoichiometry N” value [8] of the same binder?
The value was 0.88 ± 0.01 sites.

And the “stoichiometry N” value [9]?
The value was 1.15 ± 0.15 sites.

What about the “stoichiometry N” value [10] of the same binder?
Its value is 0.78 ± 0.07 sites.

And the “stoichiometry N” value [11]?
Its value is 2.3 ± 0.09 sites.

What about the “stoichiometry N” value [12] of the same binder?
The value was 0.89 ± 0.11 sites.
